In article PMC4323994 (Immunology and cell biology, 2014) one finds IC50 data, which are given here for three molecules.

Where no end group is shown, it is not given here.

For assay [1], the target named is HLA-DR molecule, DRB1*1101 (human). As to the kind of experiment: ELISA. For orientation: An ELISA detects its analyte on a solid surface through an enzyme-linked reagent.
Assay [2] concerns the target HLA-DR molecule, DRB1*0401 (human). Put plainly: ELISA.

The IC50 is the concentration needed to halve the response being measured. A high value points to weaker potency. The molecule VPPVVRWLNEQRYYGGGY (also: amino and carboxyl ends blocked) [C3d_(248–265)] displayed a half-maximal inhibitory concentration (IC50) in assay [1] of less than 2000 nM.
Take GKQLYNVEATSYALLALLQLKDFD (also: amino and carboxyl ends blocked) [C3d_(223–246)]: the IC50 in assay [2] and in assay [1] was less than 2000 nM in each case.
In assay [1], QATFMVFQALAQYQKDAP (also: amino and carboxyl ends blocked) [C3d_(269–286)] had a 50% inhibitory concentration (IC50) of less than 2000 nM.
